This series can be described thus: yeast display, Sf9 membrane polyspecificity reagent, FACS + sequencing; frameworks hold sequencing errors. The gist of the method:
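A nanobody's polyreactivity label depends on the gate it was sorted from. Yeast display cells were stained with 10% biotinylated, detergent-solubilized Sf9 membrane reagent for 1 hour at 4 °C, enriched on streptavidin microbeads and sorted by FACS. The low and high (top ~1%) gates were set on anti-HA fluorescence for expression and streptavidin fluorescence for reagent binding.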
In the case of “QVQLVESGGGLDQAGGSLRLRCAASGIIFDYNGMGWYRQAPGKERELVAVISFSGSGTYYADSVKGRFTISRDNAKNTVYLHMNSLKPEDTAVYYCAADTGPYFEYEYWGQGTQVTVSS”, the “polyreactivity (PSR sort gate)” value is given as “low polyreactivity”.

Regarding “QVQLVESGGGLVQAGGSLRLSSAASGTIFRSYSMGWSRQAPGKERELVASITWRGGRTYYADSVKGRFTISRDNAKNTVYLQMNSLKPEDTAVDFCAVLWTPAGGYYFRYDYWGQGTQVTVSS”, the “polyreactivity (PSR sort gate)” value is “low polyreactivity”.

For the sequence “QVQLVESGGGLVQAGGSLRLSCAASGFTFLINAMGWYRQAPGKERELVAAIRSGGSTNYADSVKGRFTISRDNAKNTVYLQMNSLKPEDTAVYYCAARRYYPYKYRYGYWGQGTQVTVSS”, the “polyreactivity (PSR sort gate)” value was “high polyreactivity”.

Turning to “QVQLVESGGGLVQAGGSLRLSCAASGFIFSKYAMGWYRQAPGKERELVAAITFSGGSTYYADSVKGRFTISRDNAKNTVYLQMNSLKPEDTAVYYCNAEGSYPDVSPVLGYDYWGQGTQVTVSS”, the “polyreactivity (PSR sort gate)” value was “low polyreactivity”.

For the sequence “QVQLVESGGGLFQAGGSLRLSCAASGLIFRAYAMVWYRQSPGKERELVADITRSGGRTYYADSVKGRFTISRDNAKNTVYLQMNSLKPEDTAVYYCAAYVYSYWFYRGYEYWGQGTQVTVSS”, the “polyreactivity (PSR sort gate)” value is reported as “high polyreactivity”.

Regarding “QVQIVESGGGLVQAGGSLRLSCAASGSTFSVYAMGWYRQAPGKDRELVVAIRSSGGSTYYAHSVKGRFTISRDNAKNTVYLQMNSLKPEDTAVYYCATRIIVGSYRYDYWGQATQVTVSS”, the “polyreactivity (PSR sort gate)” value is on record as “low polyreactivity”.

As to “QVQLVESGGGLVQSGGSLRLSCAASGFTFYRYTMGWYRQAPGKERELVAISSDGSTNYADSVKGRFTISRDNAKNTVYLQMNSLKPEDTAVYYCNAVYYNWIGFDYWGQGTQVTVSS”, the “polyreactivity (PSR sort gate)” value was “low polyreactivity”.

With “QVQLVESGGGLDQAGGSLRLSCAASGSIFVIYAMGWYRQAPGKERELVAAIRFSTGSTYYADSVKGRFTISRDNAKNTVYLQMNSLKPEDTAVYYCAARTFKYGSYAYEYWGQGTQVTVSS”, the “polyreactivity (PSR sort gate)” value is listed as “high polyreactivity”.

On to “QVQLVESGGGLVQAGGSLRLSCAASGSIFAYAMGWDRQAPGKERELFAAISGGSTYYADSVKGRFTISRDNAKNTVYLQMNSLNPEDTAVYSCAADLDDERYYWGQGTQVTVSS”, for which the “polyreactivity (PSR sort gate)” value is recorded as “low polyreactivity”.

As for “QVQLLESGGGLVQAGGSLRLSCAASGSTFCANAMGWYRQAPGKVWELVARITYSGGSTYYADSVKGRFTISRDNAKNTVYLQMNSLKPDDTAVYFCAADLPGKFDYWGQGTQVTVSS”, the “polyreactivity (PSR sort gate)” value is on record as “low polyreactivity”.

“QVQLVESGGGLVQAGGSLRLSCAASGRSFSKYAMGWYRQAPGKERDLVAGISRSGGSTYYADSVKGRFTISRDNAKNSVYLQMNSLKPEDTAVYYGAAVRRDYDDVYTEYWGQGTQVNVSS”: the “polyreactivity (PSR sort gate)” value was “high polyreactivity”.

“QVQLVESGGGLVQAGGSLRLSCAASGSIFASYAMGWYRQAPGKERELVAAISRRAVRTYYADSVKGRFTISRDNAKNTVYLQMNSLKPEDTAVYYCNATRGQYVGRYYYWGQGTQVTVSS”: the “polyreactivity (PSR sort gate)” value is “high polyreactivity”.

Take “QVQLVESGGGLVQAGGILRLSCAASGRTFLVNAMGWYRQAPGKERELVAAISQRGGSTDYADSVKGRFTISRDNAKNTVYLQMNSLKPEDTAVYYCAVRWGYLYDYWGQGTQVTVSS”: the “polyreactivity (PSR sort gate)” value is given as “low polyreactivity”.

In the case of “QVQLVESGGGLVQAGGSLRLSCAASGSTLIFYAMGWYRQAPGKERELVAAIRFSGGTTYYADSVKGRFTISRDNAKNTVYLQMNSLKPEDTAVYDCAADPRPAYGYYYLYADFDYWGLGTQVTVSS”, the “polyreactivity (PSR sort gate)” value is “low polyreactivity”.

As for “QVQLVESGGGLVQAGGSLRLSCAASGFTFYYYAMGWYRQAPGKERELVAAISSSGVRTYYADSVKGRFTISRDNAKNTVYLQMKSLKPEDTAVYYCATVGRGFPSVELDYWGQGTQVTVSS”, the “polyreactivity (PSR sort gate)” value is “high polyreactivity”.

Take “QVQLVESGGGLVQAGGSGRLSCAASGRIFAGYAMGWYIQAPGKERELVAAISSSGGSTYYSDSVKGRFTISRDNAKNSVYLQMNSLKPEDTAVYYCADRGKRNTPQRFYYWGQGTQVTVSS”: the “polyreactivity (PSR sort gate)” value was “high polyreactivity”.

On to “QVQLVESGGGLVPARGSLRLSWAASGSTFSLYAMGWYRQAPGKERELVAAISWSGGNTYYADSVKGRFTISRDNAKNTVYLQMNSLKPEDTAVYYCAAEGKTFHRYYLYSYDYWGQGTQVTVSS”, for which the “polyreactivity (PSR sort gate)” value is recorded as “high polyreactivity”.

As for “QVQRVESGGGLVQAGGSLRLSCAASGGIFFYNAMGWYRQAPGIERELVATIRGGGSTNYADSVKGRFTISRDNAKNTVYLQMNSLKPEDTAVYFCAAVDRRGANYNYWGQGTQVTVSS”, the “polyreactivity (PSR sort gate)” value was “high polyreactivity”.

With “QVQLVESGGGLVLAGGSLRLSCAASGRTFGIYAMGWYRQAPGKEREIVAAISWSGTSTHYADSVKGRFTISRDNAKNTVYLQMNSLKPEDTAVYYCAAAKTGRGSGTTGFGYWGQGTQVTVSS”, the “polyreactivity (PSR sort gate)” value was “high polyreactivity”.

As to “QVQLVESGGGLVQAGGSLRLSCAAYSYVMGWYRQAPGKERELVAAISQSGGSTYYADSVKGRFTISRDNAKNTVYLQMNSLKPEDTAVYYCAARREPYQYNQYYSWGQGTQVTVSS”, the “polyreactivity (PSR sort gate)” value was “high polyreactivity”.

On to “QVQLVESGGGLVQAGGSLRLSCASSGSTFPSNAMGWYRQAPGKERELVAAISRSGGSTYYADSVKGRFTISRDTAKNTVYLQMNSLKPEDTAVYYCAVQVRPNSGGTRIHRCGYDYWGQGTQVTVSS”, for which the “polyreactivity (PSR sort gate)” value was “low polyreactivity”.

“QVQLVESGGGLVQAGGSLRLSCAASGRTFYPYAMGWYRQAPGKERELVAAITWSGGSTYYADSVKGRFTISRDNAKNTVYLQMNSLKPEDTAVYYCNATYEASFYYEYDYWGQGTQVTVSS”: the “polyreactivity (PSR sort gate)” value is reported as “low polyreactivity”.

Turning to “QVQLVESGGGLVQAGGSLRLSCAASGSIFPGYTMGWYRQAPGKERELVAAITSSGGSTYYADSVKGRFTISRDNAKNTVYLQMNSLKPEDTAVYYCAADTTNYFDPFDYWGQGTQVTVSS”, the “polyreactivity (PSR sort gate)” value is “low polyreactivity”.

With “QVQLVESGGGLVQAGGSLRLSCAASGFIFYKYAMGWYRQAPGKERELVAAITRRGGSTYYADSVKGRFTISRDNAKNTVYLQMNSLKPEDTAVYYCAKYIYGYKDSPLGDDYWGQGTQVTVSS”, the “polyreactivity (PSR sort gate)” value is “high polyreactivity”.

In the case of “QVQLVESGGGLVQAGGSLRLSCAASGSTFGLYAMGWYRQAPGKERELVADITWSGGSTYYADSVKGRFTISRDNAKNTVYLQMNSLKPEDTAVYYCAADGYDQYPLWAPPGDYWGQGTQVTVSS”, the “polyreactivity (PSR sort gate)” value is reported as “low polyreactivity”.

Take “QVQLVESGGGLVQAGVSLRLSCDASGSILRENAMGWYRQAPGKERELVAVITRGGNTYYADSVKGRFTISRDNAKNTVYLQMNSLKPEDTAVYYCAAKRRERYGLTYGYWGQGTQVTVSS”: the “polyreactivity (PSR sort gate)” value is recorded as “high polyreactivity”.

Take “QVQLVESGGGLVQAGGSLRLSCAASGSIFGSNAMGWYRQAPGKEREFVAAIDWGGTITYYADSVKGRFTISRDNAKNTVYLQMNSLKPEDTAVYYCAADPTYPYGYWGQGTQVTVSS”: the “polyreactivity (PSR sort gate)” value is “low polyreactivity”.

Take “QVQLVESGGGLVQAGGSLRLSCAASGRIFAIYAMGWYRQAPGKERELVAGITYSAGSTYYADSVKGRFTISRDNAKNTVYLQMNSLKPEDTAVYYCAALEYNSHRYGYDYWGQGTQVTVSS”: the “polyreactivity (PSR sort gate)” value is “low polyreactivity”.

“QVQLVESGGGLVQAGGSLRLSCAASGSTIVQNAMGWYRQAPAKERELVAAISRTGGSTYYADSVKGRFTISRDNAKNTVYLQMNSLKPEDTAVYYCAKRPPHYSWPKLIEFGSWGQGNQVTVSS”: the “polyreactivity (PSR sort gate)” value is reported as “high polyreactivity”.

Regarding “QVQLVESGGGLVQAGGSLRLSCAASGITFSYYALGWYRQAPGKERELVAVISAGGGTTYYADSVKGRFTISRDNAKNTVYLQMNSLKPEDTAVYYCAVKIVVWWGEYDYWGQGTQVTVSS”, the “polyreactivity (PSR sort gate)” value was “high polyreactivity”.

“QVQLVESGGGLVQAGGSLRLSCAASGRIFYRNAMGWYRQAPGKERELVAAIRGGDNTYYADSVKGRFTISRDNAKNTVYLQMNSLKPEDTAVYYCAARSYRLDSYYWGQGTQVTVSS”: the “polyreactivity (PSR sort gate)” value is “high polyreactivity”.

“QVQLVESGGGLVQAGGSLSLSWAASGSTFETNAMGWYRQAPGKERELVAVITRGGSTYSADSVKGRFTISRDNAKNTVFLQMNRLKPEDTAVYYCNTVKYVPINYIYAMDYWGQGTQVTVSS”: the “polyreactivity (PSR sort gate)” value is given as “low polyreactivity”.

As to “QVQLVESGGGLVQAGGSLRLSCAASGLIFGKYAMGWYRQAPGKERELVAAITSSGGGTYYADSVKGRFTISRDNAKNTVYLQMNSLKPEDTAVYYCATGPDPKYDYWGQGTQVTVSS”, the “polyreactivity (PSR sort gate)” value is “high polyreactivity”.

“QVQLVESGGGLVQAGGSLRLSCAASGIIFQRNDMGRYRQAPGKERELVANIRDGGITYADSVKGRFTISRDNAKNTVYLQMNSLKPEDTAVYYCARDDTSPGYGDQSSNAAYYYWGQGTQVTVSS”: the “polyreactivity (PSR sort gate)” value is listed as “low polyreactivity”.

Consider “QVQLVESGVGLVQAGGSLSLSCAASGCTLRYYVMGWYRQAPGKERELVASISWSGDSTYYADSVKGRFTISRDNAKNTVYLQMNSLKPEDTAVYYCAARRWYVHYFAYGYWGQGTQVTVSS”, for which the “polyreactivity (PSR sort gate)” value was “low polyreactivity”.

As for “QVQLVESGGGLVQAGGSLRLSCAASGRIFSSYTMGWYRQAPGKERELVAAISWRGGSTYYADSVKGRFTISRDNAKNTVYLQMNSLKPEDTAVYYCAADSRSHPGDYWGQGTQVTVSS”, the “polyreactivity (PSR sort gate)” value was “low polyreactivity”.

Take “QVQLVESGGRLVQAGGSLRLSCAASGSIFYRYAMGWYRQAPGQERELVATINSDGGDTYYADSVKGRFTISRDNAKNTVSLQMNSLKPEDTAVYYSAKGYYVLYRAWYDSYDYWGQGTQVTVSS”: the “polyreactivity (PSR sort gate)” value is “low polyreactivity”.

Turning to “QVQLVESGGGLVQAGGSLRLSCAASGRTFPRYVMGWYRPAPGKERELVASITSSGGSTYYADSVKGRLTISRDNAKNTVYLQMNSLKPEDTAVYYCAAYARPNSGPYAYRLDYWGQGTQVTVSS”, the “polyreactivity (PSR sort gate)” value is “high polyreactivity”.

“QVHLVESGGGLVQAGGSLRLSCAASGLIFNIYAMGWYRQAPGKERELVAAISKSGGSTYYADSVKGRFTISRDNAKNTVYLQMNSLKPEDTAVYYCAVVRNSYRVLRLNYWGQGTQVTVSS”: the “polyreactivity (PSR sort gate)” value is “high polyreactivity”.

Turning to “QVQLVESGGGLVQAGGSLRLSCAASGRIFRAYVMGWYRQAPGKERELVATIDSGTSTYYADSVKGRFTISRDNAKNTVYLQMNSLKPEDTAVYYCAVPSHSRVPESFDYWGQGTQVTVSS”, the “polyreactivity (PSR sort gate)” value was “low polyreactivity”.

As for “QVQLVESGGGLVQAGCSLRLSCAASGRPFWYNAMGGYRQAPGNVRELVAGISGSGGSTYYADSVKGRFTISRDNAKNTVYLQMNSLKPEDTAVYYCAATTGYSRSYRYGYWGQGTQVTVSS”, the “polyreactivity (PSR sort gate)” value is “high polyreactivity”.

Source of the values: the nanobody polyreactivity screen of Harvey et al. (2022).
